Details of this series: species or system Bacillus subtilis. An excerpt:
Figure S1 CtpB Autocleavage and Dimerization, Related to Figures 1 and 2 (A) SDS-PAGE analysis monitoring auto-degradation of CtpB. […] (C) Comparison of the gelfiltration profiles of wild-type CtpB and a Δ86 construct lacking the N-terminal dimerization domain. An SDS-PAGE analysis is shown below the chromatograms. (D) Cleavage assays comparing the activity of wild-type and Δ86 CtpB against the 4B predigested 4FAproc substrate.

Drawing on publication PMC3808539, “CtpB Assembles a Gated Protease Tunnel Regulating Cell-Cell Signaling during Spore Formation in Bacillus subtilis” (Cell, 2013), this text covers auto-degradation for two molecules.

Residue numbers refer to the chain shown, from its start. Numbers in names are those of the source.

B1: WT: wild-type CtpB, PDZ-protease of B. subtilis (protein, UniProt O35002 24-480, looked up)
Carboxy-terminal processing …: GINLLEMDKPQTAAVPATAQADSERDKAMDKIEKAYELISNEYVEKVDREKLLEGAIQGMLSTLNDPYSVYMDKQTAKQFSDSLDSSFEGIGAEVGMEDGKIIIVSPFKKSPAEKAGLKPNDEIISINGESMAGKDLNHAVLKIRGKKGSSVSMKIQRPGTKKQLSFRIKRAEIPLETVFASEKKVQGHSVGYIAISTFSEHTAEDFAKALRELEKKEIEGLVIDVRGNPGGYLQSVEEILKHFVTKDQPYIQIAERNGDKKRYFSTLTHKKAYPVNVITDKGSASASEILAGALKEAGHYDVVGDTSFGKGTVQQAVPMGDGSNIKLTLYKWLTPNGNWIHKKGIEPTIAIKQPDYFSAGPLQLKEPLKVDMNNEDVKHAQVLLKGLSFDPGREDGYFSKDMKKAVMAFQDQNKLNKTGVIDTRTAETLNQQIEKKKSDEKNDLQLQTALKSLFVN
As for B1, the auto-degradation entry was “auto-degraded at position 36 and 42”.

B2: CtpBS309A: inactive CtpB S309A mutant (protein, UniProt O35002 24-480, looked up, variant S309A)
Carboxy-terminal processing …: B1 Carboxy-terminal processing … with S286A
For B2, the auto-degradation entry is “no further degradation”.
